The source of these data is the nanobody polyreactivity screen of Harvey et al. (2022).

The data set can be described thus: yeast display, Sf9 membrane polyspecificity reagent, FACS + sequencing; frameworks hold sequencing errors. The method in brief:
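Synthetic nanobody libraries on Saccharomyces cerevisiae BJ5465 were galactose-induced for 36–48 hours, stained 1 hour at 4 °C with 10% biotinylated, detergent-solubilized Sf9 membrane reagent and enriched on streptavidin microbeads. FACS then separated cells into low and high (top ~1%) gates by anti-HA (expression) and streptavidin (reagent binding) fluorescence. Genes were colony-PCR amplified, MiSeq 2 × 250 sequenced and CDR-length filtered. A clone's polyreactivity label is that of its gate of origin.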
For “QVQLVESGGGLFQAGGSLRISCAATGSTFGSYAMGWYRQAPGKERELVAAISVGGGSTYYADSVKGRFTISRDNAKNTVYLKMNSLKPEDTAVFYCAATAPRWHHFYHWGQGTQVTVSS”, the “polyreactivity (PSR sort gate)” value is “high polyreactivity”.

Consider “QVQLVESGGGLVQAGGSLRLSCAASGSTFYYNAMGWYRQSPGKERELVARISRSGGSTYADSVKRRFTISRDNAKNTVYLQMNSLKPEDTAVYYCNAEAYGTPEFTSYAVRYDYWGQGTQVTVSS”, for which the “polyreactivity (PSR sort gate)” value is on record as “low polyreactivity”.

Take “QVQLVESGGGLDQAGGSLRLSCAASGRTYYRYAMGWYRQAPGKESELVAAITWSGGSSYYADSVKGRFTTSRDNAKNTVYLQRNTLKPEDTAVYYCARRLYPYRPTAYDSWGQGTQVTVAS”: the “polyreactivity (PSR sort gate)” value was “low polyreactivity”.

For “QVQLVESGGGLVQAGGSLRLSCAASGIIFYTNAMGWYRQAPGKEREFVAAINTSGGITYYADSVKGRFTISRDNATNTVYLQMNSLKPEDTAVYYCAKDRRYRPPYGYEIEYAYWGQGTQVTVAS”, the “polyreactivity (PSR sort gate)” value is “low polyreactivity”.

As for “QVQLVESGGGLVQAGGSLRLSCAASGSTFYTYAMGWYRQAPGKERELVAAINRSGGTTYYADSVKGRFTISRDNAKNTVYLQMNSLNPEDTAVYYCARRRYGYDYWGQGTQVTVSS”, the “polyreactivity (PSR sort gate)” value is listed as “high polyreactivity”.

Turning to “QVQLVESGRGLVQAGGSLRLSCAASGSNFSVYAMGWYRKAPGKERELVAGITRGGSTYADSVKGRFTISRDNAKNTVYLQMNCLKPEDTAVYYFNAVWSNFRLGYDYWGQGTQVTVSS”, the “polyreactivity (PSR sort gate)” value was “high polyreactivity”.

Turning to “QVQIVESGGVLDHAGGSLRLSCAATVGTSIPNAMGWYRQAPGKERELVAAITRSGGRTYYADSVKGRFTISRDNATNTVYLQMNSLKREDTAVYYCAARVRTTSVRGRYDYWGQGTQVTVSS”, the “polyreactivity (PSR sort gate)” value was “high polyreactivity”.

Take “QVQLVESGGGLVQAGGSLRLSCAASGNTFSLYAMGWYRQAPGKERELVAAITWITGSTDYADSVKGRFTISRDNAKNTVYLQMNSLKPEDTAVYYCAADGDFSWFYSYETGWIEYDYWGQGTQVTVSS”: the “polyreactivity (PSR sort gate)” value is given as “low polyreactivity”.

Consider “QVQLVESGGGLVQAGGSLRLSCAASGRIFRGYAMAWYRQAPGKERELVAAISGRGGRTNYADSVKGRFTISRDNAKNTVYLQMNSLKPEDTAVYYCATVPYTASRYEYWGQGTQVTVSS”, for which the “polyreactivity (PSR sort gate)” value is “high polyreactivity”.

As to “QVQLVESGGGLVQAGGSLRLSCAASGFTFRDYAMGWYRPAPGKERELVAAITRSGGRTYYADSVKGRFTISRDNAKNTVYLQMNSLKPEDTAVYYCAAQLPYYGYDYWGQGTQVTVSS”, the “polyreactivity (PSR sort gate)” value is reported as “low polyreactivity”.

Regarding “QVQLVESGGGLVQAGGSLRLSCAASGSIFLAYAMGWYRQAPGKEREFVAAISFSDGSTYYADSVKGRFTISRDNAKNTVYLQMNSLKPEDTAVYYCNKGASPVDYDYWGQGTQVTVSS”, the “polyreactivity (PSR sort gate)” value was “low polyreactivity”.

For “QVQHVESGGCLVQAGGSLRLSCASSGRTFARYAMGWSRQPPGKDSELVAAITRRGGSTYYADSVKGRFTLSRDNAKNTVSLQMNSLKPEDTAVYYCAAHYRNFGIGAYEYWGKGTQVTVSS”, the “polyreactivity (PSR sort gate)” value is given as “high polyreactivity”.

For the sequence “QVQLVESGGGLVQAGGSDRLSCAASGSIIDYYAMGWYRQAPGKERELVADITVTGDGTYYADSVKGRFTISRDNAKNTVYLQMNSLKPEDTAVYYCAAAGVYYGVRGTTYAYDYWGQGTQVTVSS”, the “polyreactivity (PSR sort gate)” value is “low polyreactivity”.

As for “QVQLVESGGGLVQAGGSLRLSCAASGRTFGRYAMGWYRQAPGKERELVAAITRGGGSTYYADSVKGRFTISRDNAKNTVYLQMNSLKPEDTAVYYCAARNFRSPYGYDYWGQGTQVTVSS”, the “polyreactivity (PSR sort gate)” value is “high polyreactivity”.

With “QVQLVESGGGLVQAGGSLRLSCAASGRTFGYNAMGWYRQAPGKERELVAAIRYSGGSTYYADSVKGRFTISRDNAKNTVYLQMNSLKPEDTAVYYCAAYCLFSSYGYDYWGQGTQVTVSS”, the “polyreactivity (PSR sort gate)” value is listed as “high polyreactivity”.

“QVQLVESGGGLVQAGCSLRLSCAASGITFRRYTMGWYRPAPGKERELVATISLSDGNTYYADSVKGRFTISRDNAKNTVYLQMNSLKPEDTAVYYCTADVRYGRDHWGQATQVTVSS”: the “polyreactivity (PSR sort gate)” value was “low polyreactivity”.

Consider “QVQLVESGGGLVQAGGILRLSCAASGSIFAGYAMGWYRQAPGKERELVAVITWRTDITYADSVKGRFTISRDNAKNTDYLHMNSLKPDDTAVYYCAADSDSTTRLFGDEYWGQGTQVTVSS”, for which the “polyreactivity (PSR sort gate)” value is recorded as “low polyreactivity”.

On to “QVQLVESGGGLVQAGGSLRLSCAASGITFHGNTMGWYRQAPGKERELVAGISTSGSITYYADSVKGRFTISRDNAKKTVYLQMNSLKPEDTAVYYCAAVSHATQIAERGYWGQGTQVTVSS”, for which the “polyreactivity (PSR sort gate)” value is reported as “low polyreactivity”.

As to “QVQLVESGGGLVQAGGSLRLSCAASVYTFKSYAMGWYRQAPGKERELVASISNDGSTNYADSVKGRFTISRDNAKNTVYLQMNSLKPEDTAVYYCNADFYDAPSQWARTGFDYWGQGTQVTVSS”, the “polyreactivity (PSR sort gate)” value is “low polyreactivity”.

“QLQLEESAGGLVQAGGSLRLSCAASGLTFPSYVMGRYRPAPGKEREFVAASTGSAGSTYYADSVKGRLTISRDNAKNTVYLQMISLKPEDSAVYYCAARVRYVNPKYYYWGHGTQVTVSS”: the “polyreactivity (PSR sort gate)” value is reported as “high polyreactivity”.

In the case of “QVQLVESGGGLVQAGGSLRLSCASSGRIYVYTMGWYRQAPGKERELVATITRSGGSTYYADSVKGRFTISRDNAKNTVYLQMNSLKPEDTAVYYCNAVGRFTPYSSRREYDYWGQGTQVTVSS”, the “polyreactivity (PSR sort gate)” value was “low polyreactivity”.

Consider “QVQLVESGGGLVQAGGSLRLSCAASGSIFRSYALGGYRQAPGKERELVASISRRGGSTYYADSVKGRFTISRDNAKNTVYLQMNSLKPQDTAVYYCAAVRYNSRGSTTPSEMYYWGQGTQVTVSS”, for which the “polyreactivity (PSR sort gate)” value is “low polyreactivity”.

Consider “QVQLVESGGGLVQAGGSLRLSCAASGRIIGGNAMGWYRPAPGKEREFVAAIRASGGSTHYADSVKGRFTISRDNAKNTVYLQMNSLKPEDTAVYYCNTYRARLGTTFIDYDYWGQGTQVTVSS”, for which the “polyreactivity (PSR sort gate)” value is recorded as “high polyreactivity”.

In the case of “QVQLVESGGGLVQAGGSLRLSCAASVSTFYSYAMGAYRKAPGKERELVATISTRGGSTYYADSVKGRFTISRDNAKNTVYLHMNSLKPEDTAVYYCNVRLEYRYYRGDYWGHGTQVTVSS”, the “polyreactivity (PSR sort gate)” value is reported as “high polyreactivity”.

Consider “QVQLVESGGGLVQAGGSLRLSCASSGPIIFAYAMGWYRQAQGKEREFVAAISDNDGSTYYADSVKGRFTISRDNAKNSVYLQMNSLKPEDTAVYYCNADLGYVYDYWGQGTQVTVSS”, for which the “polyreactivity (PSR sort gate)” value is on record as “low polyreactivity”.

Take “QVQLVESGGGLVQAGGSLRLSCAASGRTFARNAMGWYRQAPGKDRELVAAISSSGGSTYYADSVKGRFTISRDNAKNTVYLQMNSLKPEDTAVYYCAARSRHAYGYWGQGTQVTVSS”: the “polyreactivity (PSR sort gate)” value was “high polyreactivity”.

“QVQLVESGGGLVQAGGSLRLSCAASGFSFARNAMGWYRQAPGKERELVAAISDSGGRTYYADSVKGRFTISRDIAKNTVYLQMNSLKPEDTAVYYCAAALTFRMDYWGQGTQVTVSS”: the “polyreactivity (PSR sort gate)” value is listed as “high polyreactivity”.

“QVQLVESGGGLVQAGGSLRLSCAASGSTFEHYAMGWYRQAPGKERELVAAITRRGGSTYYADSVKGRFTISSDNAKNTVYLQMNSLKPEDTAVYYCYTVLRYSYYLPGYDYWGQGTQVTVSS”: the “polyreactivity (PSR sort gate)” value was “high polyreactivity”.

Regarding “QVQLVESGGGLVQAGGSLRLSCAASGFTFGYYAMGWYRPAPGKERELVAGISSSGSRTYYADSVKGRFTISRDNAKNTVYLQMNSLKPEDTAVYYCNKYYSGKSYTGEDYWGQGTQVTVSS”, the “polyreactivity (PSR sort gate)” value is on record as “high polyreactivity”.

“QVQLVESGGGLVQAGGSLRLSCAASGNIFGYYAMGWYRQAPGKERELVAAITTTGGSTYYADSVKGRFTISRDNAKNTVYLQMNSLKPEDTAVYYCAAETGYWYYYWGQGTQVTVSS”: the “polyreactivity (PSR sort gate)” value is recorded as “high polyreactivity”.

Consider “QVQLVESVGGLGQAGGSLRLSCASSGFTFARYAMAWYIQAPGKERELVAAISGSGSTYYADSVKGRFTISRDNAKNSVYLQMNSLKTEDTAVYYCNAGNFGRFGFWGQGTQVTVSS”, for which the “polyreactivity (PSR sort gate)” value is on record as “high polyreactivity”.

Consider “QVHLVESGGGLVQAGGSLRLSSAASGITFYGNAMGWYRQAPGKERELVATISSGGSTNYADSVKGRFTISRDNAKNTVYLQMHSLKPEDTAVYYCNAAPDVNRDYEGSGDYWGQGTQVTVSS”, for which the “polyreactivity (PSR sort gate)” value is listed as “low polyreactivity”.

On to “QVQLEESGGGLDQAGGSLRLSCAASGSTFYKNAMGWYRQAPGKERELVARISGRGGSTDYADSVKGRFTISRDNAKNTVYLQMNSLKPDDTAVYYCNAGKYSSSDALYDYWGQGTQVTVSS”, for which the “polyreactivity (PSR sort gate)” value was “high polyreactivity”.

For “QVQLVESGGGLVQAGGSLRLSCAASGFTFGYNAMGRYRQAPGKERELVAAITSGGSTNYADSVKGRFTISRDNAKNTVYLQMNSLKPEDNAVYYCATGVRPWRKKPVEFYHWGQGTQVTVSS”, the “polyreactivity (PSR sort gate)” value is given as “low polyreactivity”.

As to “QLQHVESGGGLVQAGGSLRLTCAASGRTFGYYAMGWYRQAPGKERELVAAITSGGRTYYADSVKGRFTISRDNAKNTVYLQMNSLKPEDTAVYYCNAPPRWCSRVAWYEYWGQGTQVTVSS”, the “polyreactivity (PSR sort gate)” value is “high polyreactivity”.

Turning to “QVQLVESGGGLVQAGGSLRLSCAASGSTLRGNARGCYRQAPGKEREFVAAISSSGGRTYYADSVKGRFTISRDNAKNTVYLQMTSLNPEDTAVYYCAAAGYQYYFSSVPRAYYYWGQGTLVTVSS”, the “polyreactivity (PSR sort gate)” value is listed as “high polyreactivity”.

On to “QDQLVDSGGGLDQAGGSLRLSCAATGRTIGINAMGWYRQAPGKERELVAVISFGDGGTYSADSVKGRFTISRDNAKNTVYLQMNSLKPEDTAVYYCATDYQSTSVWGGHFVINPFDYWGQGTQVTVSS”, for which the “polyreactivity (PSR sort gate)” value is recorded as “low polyreactivity”.

As for “QVQLVESGGGLVQAGGSLRLSCAASGSTFYSYTMGWYRQAPGKERELVAAISRSAGSTYYADSVKGRFTISRDHAKNTVYLQMNSLKPEVTAVYYCAATLGRTYYSRWYGMDYWGQGTQVTVSS”, the “polyreactivity (PSR sort gate)” value is “high polyreactivity”.

In the case of “QVQLVESGGGLVQAGGSLRLTCAASGRIFKRYVMGWYRQAPGKERELVAAISVRGASTYYADSVKGRFTISRDHAKNTVYLQMNSLKPEDTAVYYCATAGYRLLDYWGQGTQVTVSS”, the “polyreactivity (PSR sort gate)” value was “high polyreactivity”.

Regarding “QVQLVESGGGLVQAGRSLRLSCAASGRIFIWYRMGWYRQAPGKERELVSAITRRGGSTYYADSVKGRFTISRDNAKNTVYLQMNSLKPVDTAVYYCNADAIVSPYRLWTVTYSYWGQGTQVSVSS”, the “polyreactivity (PSR sort gate)” value is “low polyreactivity”.

For the sequence “QVQLVESGGGLVQAGGSLRLSCAASGIIFTGYAMGWYRQAPGKERELVAAISDTGGSTYYADSVKGRFTISRDNAKNTVYLQMNSLKPEDTAVYYCAADWWSRYYYWGQGTQVTVSS”, the “polyreactivity (PSR sort gate)” value was “high polyreactivity”.
